# Patent US10806804B2, “Compounds having RD targeting motifs and methods of use thereof” (Washington University, priority 2015, dated 2020)
# Positions of bridges follow the written chain, without caps; N, C: chain ends. Non-standard residues stand in square brackets, D forms with d. Residues, ends and D or L forms follow the SMILES beside them. Primed or numbered codes have the meaning given here. *: point of attachment. Cypate = CC1(C)C(/C=C/C=C/C=C/C=C2/N(CCC(=O)*)c3ccc4ccccc4c3C2(C)C)=[N+](CCC(=O)O)c2ccc3ccccc3c21; Cypate′ = not defined here
# Key:
# PDAC [1] = assay: in vivo uptake/contrast in PDAC relative to uninvolved pancreas
# Source text: A similar trend is observed in vivo, where preferential uptake in PDAC relative to uninvolved pancreas is […]. […] Permutation of the arginine-aspartic acid sequence results in a loss of PDAC-selective uptake. It has been shown that cypate binds to the hydrophobic pockets of albumin, irrespective of the source (human, murine, or bovine). […] Thus, the primary goal of this study is to determine the role of the peptide in tumor cell internalization or retention. Based on preliminary data, this question can be addressed by preparing the following cypate-labeled peptides (underlined amino acids are changes made to LS838): […]
# tumor cells = assay: NIR fluorescence microscopy of uptake and trafficking in cells; assay type: cell-based; details: dye alone
# Description: FIG. 8A and FIG. 8B depict uptake of LS838 in 4T1 luc cells showing internalization of the probe in the cells at 1 h (FIG. 8A) and 4 h (FIG. 8B) post incubation. Most cells show localization in the lysosomes at early time points, but the punctate fluorescence became more diffuse at 24 h, indicating translocation to the cytosol. Uptake in the mitochondria was negligible. Color scheme: cyan, Mitotracker; green, lysotracker; and red, LS838. (FIG. 8C) Internalization of LS838 in cells was inhibited by Filipinin, an inhibitor of albumin endocytosis via the gp60 pathway. A similar inhibition was observed when Alexa-680 dye labeled albumin (BSA; blue) was mixed with LS838.
# At early time points, LS838 is largely in the lysosomes, but it translocates to the cytosol in a time-dependent manner. […]
# Aggresomes are microtubule-catalyzed aggregates of […] that are used to degrade particularly stable and aggregated proteins. […] It will be evaluated if tumors have a lower ability to form aggresomes because of microtubule dysfunction, leading to prolonged retention in tumor cells compared to normal cells. If LS838 induces aggresome formation in tumor cells, but not fibroblasts will first be determined. […] It will also be determined if aggresomes form in vivo using a literature method. […] Aggresome formation will be determined by staining muscle, skin, and tumors for anti-ubiquitin protein. […]
# albumin [2] = molecular target: T1, albumin (Homo sapiens, UniProt P02768); details: carbocyanine dyes, previous study; cited from earlier work
# 4T1 luc = assay: in vivo tumor targeting / fluorescence imaging of probes compared with LS301; parameters: species or system Balb/c; details: Tyr adjacent to the cypate
# Description: FIG. 5 depicts images showing LS838 for fluorescence and nuclear (PET and or SPECT) imaging. 4T1 luc in Balb/c; 100 μl of 50 μM LS838.
# FIG. 6 depicts the distribution of LS838 in tissue at 24 hours.
# A variety of probes which have similar sequence compared to LS301 were designed and prepared (Table 1). The probes have different peptide sequences, D-, L-amino acid variations or different groups on C-terminus. The sequences of the probes were tested by LC-MS and the spectroscopy properties were recorded. The performances of the tumor targeting abilities were also tested in vivo. […] It was unexpected that LS838 would be brighter relative to LS301 and it is unknown to us why it does. However, the enhanced brightness allows the use of smaller amounts of material to achieve the same uptake kinetics and accumulation as LS301. FIG. 5 depicts the accumulation of LS838 in vivo and FIG. 6 graphically quantifies the intensity of LS838 in various organs. […] LS838 labeled can be labeled with radionuclides such as radio-iodine, bromine, or fluorine for combined optical and nuclear imaging.
# PDAC [3] = tested on: PDAC; parameters: species or system mice; details: mouse, in vivo
# Source text: To overcome this problem, the use of peptides as a tumor-trapping mechanism was explored. The highly reducing environment of tumor cells is known to reduce disulfide bonds to thiols, which can trans-thiolate with cysteine-containing intracellular proteins to trap the molecular probe. Therefore, a variety of disulfide-containing peptides were conjugated to cypate and the compounds were screened in mice with advanced stage PDAC. […] Replacement of the D-Cysteine with the natural L-Cysteine residue abrogates this retention.
# albumin [4] = molecular target: T1, albumin; assay: binding of carbocyanine dyes and LS838 to albumin (binding constant K)
# Source text: The hypothesis is that the binding of cypate to albumin facilitates the internalization of LS838 in PDAC/PanIN lesions. In a previous study, the binding of some carbocyanine dyes to albumin was compared. […] It was also shown that conjugation of peptides to the dyes decreases the K by a factor of ˜10. Using the same method, we determined the K value of LS838 to be 86,000 M^−1.
# pancreas tumor cells = details: in vivo
# [5] = in vivo
# Source text: While this is not a problem in the proposed laparoscopy, the excretion route to the kidneys can be altered by conjugating positively charged moieties (—^+NMe3) or nonionic groups (e.g. PEG) to the free carboxylic acid group of cypate. […] In the unlikely event that the cyanine dyes are photo-unstable, they will be replaced with NIR pyrrolopyrrole cyanine dyes (PPCy), which are highly photostable and have exceptionally high fluorescence quantum yields (up to 80%).
# T1 sequence (P02768 25-609, species assumed): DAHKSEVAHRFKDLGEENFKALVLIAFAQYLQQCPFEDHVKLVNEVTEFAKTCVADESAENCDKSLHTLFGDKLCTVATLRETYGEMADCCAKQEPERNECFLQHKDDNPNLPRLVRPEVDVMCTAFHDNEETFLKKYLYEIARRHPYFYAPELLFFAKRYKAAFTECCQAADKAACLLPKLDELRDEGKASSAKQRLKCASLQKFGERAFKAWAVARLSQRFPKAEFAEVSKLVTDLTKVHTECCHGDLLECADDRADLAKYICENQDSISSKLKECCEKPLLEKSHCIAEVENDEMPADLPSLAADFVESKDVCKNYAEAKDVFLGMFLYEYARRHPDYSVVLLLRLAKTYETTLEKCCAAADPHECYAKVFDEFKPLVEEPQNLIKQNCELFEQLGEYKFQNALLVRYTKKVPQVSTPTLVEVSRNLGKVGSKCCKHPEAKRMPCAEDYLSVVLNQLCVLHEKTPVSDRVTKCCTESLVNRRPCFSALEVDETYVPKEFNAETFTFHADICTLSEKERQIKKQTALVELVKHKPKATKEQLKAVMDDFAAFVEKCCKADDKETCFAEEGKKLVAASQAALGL
molecule,measurement,setting,value
CC1(C)C(/C=C/C=C/C=C/C=C2/N(CCC(=O)O)c3ccc4ccccc4c3C2(C)C)=[N+](CCC(=O)[O-])c2ccc3ccccc3c21 [cypate],preferential uptake in PDAC relative to uninvolved pancreas,PDAC [1],not observed
same,efflux from tumor cells after transfer to new culture medium,tumor cells,rapidly effluxes
same,binding constant (K) to albumin,albumin [2],"556,000 M^−1"
Tyr-Cypate-Cyclo(DCys-Gly-Arg-Asp-Ser-Pro-Cys)-Lys-NH2 ({Tyr-Cypate′}-[dC]GRDSPCK-NH2; disulfide 1-7 (inferred)) [LS758],retention in tumors after in vivo administration,4T1 luc,rapid loss of retention in tumors
"CC1(C)C(/C=C/C=C/C=C/C=C2/N(CCC(=O)N[C@@H]3CSSC[C@@H](C(=O)N[C@@H](Cc4ccc(O)cc4)C(=O)O)NC(=O)[C@@H]4CCCN4C(=O)[C@H](CO)NC(=O)[C@H](CC(=O)O)NC(=O)[C@H](CCCNC(=N)N)NC(=O)CNC3=O)c3ccc4ccccc4c3C2(C)C)=[N+](CCC(=O)O)c2ccc3ccccc3c21 [LS838, Cypate-Cyclo(DCys-Gly-Arg-Asp-Ser-Pro-Cys)-Tyr-OH] (Cypate-[dC]GRDSPCY-OH; disulfide 1-7)",selective retention in tumors (duration),PDAC [3],over 48 h
same,Kd,albumin [4],11.6 µM
same,time remaining primarily in the tumor cells relative to non-tumor cells,pancreas tumor cells,up to 100 h
same,time to internalization in the pancreas,pancreas tumor cells,≤ 1 h
same,clearance route,[5],clears through the liver
"CC1(C)C(/C=C/C=C/C=C/C=C2/N(CCC(=O)N[C@@H](Cc3ccc(O)cc3)C(=O)N[C@@H]3CSSC[C@@H](C(=O)N[C@@H](CCCCN)C(=O)O)NC(=O)[C@@H]4CCCN4C(=O)[C@H](CO)NC(=O)[C@H](CC(=O)O)NC(=O)[C@H](CCCNC(=N)N)NC(=O)CNC3=O)c3ccc4ccccc4c3C2(C)C)=[N+](CCC(=O)O)c2ccc3ccccc3c21 [LS747, Cypate-Tyr-Cyclo(DCys-Gly-Arg-Asp-Ser-Pro-Cys)-Lys-OH] (Cypate-Y[dC]GRDSPCK-OH; disulfide 2-8)",retention in tumors after in vivo administration,4T1 luc,rapid loss of retention in tumors
"CC1(C)C(/C=C/C=C/C=C/C=C2\N(CCCCS(=O)(=O)O)c3ccc4ccccc4c3C2(C)C)=[N+](CCCCS(=O)(=O)[O-])c2ccc3ccccc3c21 [ICG, indocyanine green]",binding constant (K) to albumin,albumin [2],"554,000 M^−1"
